Measured values: US20190016816A1 (APTEVO RESEARCH AND DEVELOPMENT, published 2019)

What was measured:
human CD137 on cells [1] = molecular target: T1, human CD137 on cells (human, UniProt Q07011 24-255); assay: cell-based or functional assay
human CD137 on cells [2] = molecular target: T1, human CD137 on cells; assay: flow cytometry, CD8 T cells gated from CD3-stimulated human PBMC, biotinylated antibody + streptavidin-APC, exp 1, n=3 donors
Protocol: (§1) Following 48 h of incubation with or without CD3, human and cynomolgus PBMC were harvested, pooled, recounted and diluted in FACS buffer (PBS+0.5% BSA, 0.05% NaN₃) to a concentration of 5×10⁶ cells/mL. 50 μL (0.25×10⁶ cells) of cell solution was added to a 96-well FACS staining plate (Falcon #351190). Following 10 min of Fc-blocking in RT using Beriglobin (hIgG, 200 μg/mL), cells were washed in FACS buffer and then incubated for 1 h in 4° C. with 100 μL of the biotinylated ALG.APV-210 or negative control. […] Cells were analysed for ALG.APV-210 binding using flow cytometry by gating on viable, single cells expressing CD3 and CD8. MFI values (FMO subtracted) from 2 independent experiments as well as normalized pooled data from 2 experiments and EC₅₀-values were determined and plotted using GraphPad Prism 7, non-linear regression log (agonist) vs. normalized response—variable slope, n=6 donors/group.
In ELISA tests, the binding of biotinylated ALG.APV-210 to CD137 was similar to that of the non-biotinylated ALG.APV-210 (0.6 nM vs. 0.7 nM). The binding (EC₅₀) of the biotinylated ALG.APV-210 to its immunomodulatory target CD137 when expressed on activated primary human and cynomolgus CD8 T cells from CD3 stimulated PBMC was assessed and compared between the two species as well as to unstimulated cells. […]

human CD137 on cells [3] = molecular target: T1, human CD137 on cells; assay: flow cytometry, percentage of CD8 T cells (gated from CD3-stimulated human PBMC) bound by the biotinylated antibody, exp 1, n=3 donors
Protocol: as §1, with “control. The antibodies were added in a serial dilution starting either at 5 μg/mL titrating down in a 12 step ⅓ dilution down to […] (exp 1) or 1 μg/mL titrating down in a 12 step ½ dilution down to 0.0005 μg/mL (exp 2).” for “control.”

human CD137 on cells [4] = molecular target: T1, human CD137 on cells; assay: flow cytometry, MFI of the CD137 positive cells; human CD8 T cells, MFI of CD137 positive cells
Protocol: as §1, with “control. The antibodies were added in a serial dilution starting either at 5 μg/mL titrating down in a 12 step ⅓ dilution down to […] (exp 1) or 1 μg/mL titrating down in a 12 step ½ dilution down to 0.0005 μg/mL (exp 2).” for “control.”

[5] = molecular target: T2, cynomolgus CD137 on cells (cynomolgus macaque, UniProt A9YYE7 24-254); assay: flow cytometry, MFI of the CD137 positive cells; cynomolgus CD8 T cells, MFI of CD137 positive cells
T2 construct: whole, on cells; also called CHO-K1/cynomolgus CD137 cell line; cynomolgus monkey CD137 on CD3-stimulated primary CD8 T cells
Protocol: as §1
ALG.APV-210 binding was also assessed by looking at the percentage of CD8 T cells bound by ALG.APV-210. […] The binding EC₅₀ values were also calculated on the MFI of the CD137 positive cells, and the results was an EC₅₀ of 0.17 nM for binding to human CD137 and 0.20 nM for cynomolgus monkey CD137.

T1 sequence (Q07011 24-255 limits assumed): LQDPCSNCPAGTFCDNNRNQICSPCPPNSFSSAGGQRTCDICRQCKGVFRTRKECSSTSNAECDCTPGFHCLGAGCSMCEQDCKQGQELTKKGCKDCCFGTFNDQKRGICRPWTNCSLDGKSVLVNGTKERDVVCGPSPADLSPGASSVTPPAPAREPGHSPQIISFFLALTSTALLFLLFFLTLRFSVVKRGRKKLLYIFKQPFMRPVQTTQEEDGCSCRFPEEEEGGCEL
T2 sequence (A9YYE7 entry or part of it): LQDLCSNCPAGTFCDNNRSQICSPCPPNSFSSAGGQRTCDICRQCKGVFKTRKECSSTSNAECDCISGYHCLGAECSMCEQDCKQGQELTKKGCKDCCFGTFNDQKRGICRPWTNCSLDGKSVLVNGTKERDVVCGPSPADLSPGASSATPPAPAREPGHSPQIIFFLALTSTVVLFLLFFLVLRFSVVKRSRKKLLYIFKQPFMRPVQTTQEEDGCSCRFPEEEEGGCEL

| EC50 (nM), CD137 reporter assay with CHO/5T4 cells (human CD137 on cells [1]) [nM] | EC50 (nM), CD137 reporter assay with H1975 cells (human CD137 on cells [1]) [nM] | EC50 (nM), CD137 reporter assay with MDA.MB-231 cells (human CD137 on cells [1]) [nM] | EC50 (nM), CD137 reporter assay with TF-1 cells (human CD137 on cells [1]) [nM] | Binder | EC50 (read off the curve) (human CD137 on cells [2]) [nM] | EC50 (read off the curve) (human CD137 on cells [3]) [nM] | EC50 (human CD137 on cells [4]) [nM] | EC50 [5] [nM] |
| --- | --- | --- | --- | --- | --- | --- | --- | --- |
| 0.0092 | 0.037 | 0.054 | 0.063 | ALG.APV-210 (bispecific antibody, Optimized ADAPTIR scFv-Fc-scFv homodimer with stabilizing disulfide in the 1210 scFv; also called 5T4-CD137 bispecific antibody) EVQLLESGGGLVQPGGSLRLSCAASGFTFSHGSMYWVRQAPGKGLEWVSSISSGSGSTYYADSVKGRFTISHDNSKNTLYLQMNSLRAEDTAVYYCARSSYYGSYYSIDYWGQGTLVTVSSGGGGSGGGGSGGGGSGGGGSDIQMTQSPSSLSASVGDRVTITCRASQSISSYLNWYQQKPGKAPKLLIYAASSLQSGVPSRFSGSGSGTDFTLTISSLQPEDFATYYCQQYYDNLPTFGQGTKLEIKEPKSSDKTHTCPPCPAPEAAGAPSVFLFPPKPKDTLMISRTPEVTCVVVDVSHEDPEVKFNWYVDGVEVHNAKTKPREEQYNSTYRVVSVLTVLHQDWLNGKEYKCAVSNKALPAPIEKTISKAKGQPREPQVYTLPPSRDELTKNQVSLTCLVKGFYPSDIAVEWESNGQPENNYKTTPPVLDSDGSFFLYSKLTVDKSRWQQGNVFSCSVMHEALHNHYTQKSLSLSPGSGGGGSGGGGSGGGGSPSEVQLLESGGGLVQPGGSLRLSCAASGFTFSSYAMSWVRQAPGKCLEWVSAISGSGGSTYYADSVKGRFTISRDNSKNTLYLQMNSLRAEDTAVYYCARYYGGYYSAWMDYWGQGTLVTVSSGGGGSGGGGSGGGGSGGGGSDIQMTQSPSSLSASVGDRVTITCRASQSISSFLNWYQQKPGKAPKLLIYAASSLQSGVPSRFSGSGSGTDFTLTISSLQPEDSATYYCQQTYGYLHTFGCGTKLEIKR |  |  |  |  |
|  |  |  |  | biotinylated ALG.APV-210 (bispecific antibody, also called ALG.APV-210 (biotinylated for FACS detection)) EVQLLESGGGLVQPGGSLRLSCAASGFTFSHGSMYWVRQAPGKGLEWVSSISSGSGSTYYADSVKGRFTISHDNSKNTLYLQMNSLRAEDTAVYYCARSSYYGSYYSIDYWGQGTLVTVSSGGGGSGGGGSGGGGSGGGGSDIQMTQSPSSLSASVGDRVTITCRASQSISSYLNWYQQKPGKAPKLLIYAASSLQSGVPSRFSGSGSGTDFTLTISSLQPEDFATYYCQQYYDNLPTFGQGTKLEIKEPKSSDKTHTCPPCPAPEAAGAPSVFLFPPKPKDTLMISRTPEVTCVVVDVSHEDPEVKFNWYVDGVEVHNAKTKPREEQYNSTYRVVSVLTVLHQDWLNGKEYKCAVSNKALPAPIEKTISKAKGQPREPQVYTLPPSRDELTKNQVSLTCLVKGFYPSDIAVEWESNGQPENNYKTTPPVLDSDGSFFLYSKLTVDKSRWQQGNVFSCSVMHEALHNHYTQKSLSLSPGSGGGGSGGGGSGGGGSPSEVQLLESGGGLVQPGGSLRLSCAASGFTFSSYAMSWVRQAPGKCLEWVSAISGSGGSTYYADSVKGRFTISRDNSKNTLYLQMNSLRAEDTAVYYCARYYGGYYSAWMDYWGQGTLVTVSSGGGGSGGGGSGGGGSGGGGSDIQMTQSPSSLSASVGDRVTITCRASQSISSFLNWYQQKPGKAPKLLIYAASSLQSGVPSRFSGSGSGTDFTLTISSLQPEDSATYYCQQTYGYLHTFGCGTKLEIKR | ~0.3 | ~0.02 | 0.17 | 0.2 |
